Results on 20 sequences are retold here after the DeepSol protein solubility set.

The data set is described as follows: soluble on expression in E. coli; label from the status in PepcDB or PDB records.
Take “MPSNCRRFEGKVAIVTAATKGIGLAIAERLLDEGASVVIGSRNQKNVDEAIEYLKNKGLTKVAGIAGHIASTDDQKKLVDFTLQKFGKINILVNNHGINPAFGHILEVSDQVWDKLFEVNVKAGFQMTKLVHPHIAKEGGGAIIFNASYSAYKSPPGIAAYGVTKTTLVGLTRALAMGLAKDNIRVNGIAPGVIKTKMSQVLWDGGEDAEKELTDIQEIALGRLGVPDDCAGTVAYLASDDSSYITGEMIIIAGGVQARL”: the “soluble on expression in E. coli” value was “not soluble”.

“MPSSGQLYGDEERELTPTPAIPEEGVYEVKYSNRRTNVVRLLPNGFQERKLRRLANLSAKLFNEVNFERRQQFFHEGKVNIEETYKKYYEKYKVILGVNAQAVLNKNNEAWSSFFSLLKLKKEGKLPPHMNHVSPPGYWKDREAGKRKQILVIRQDRYKVDAENHKLILKDFDMEIDFIGRLKWYGKQGRLEIIFDETRNAWYAHIPIEVGVEETKAGKKSKHVVKGERKSIQISKPKGNKVASIDLGINVIASVVVNDGTWLLYKGVRTKEDYFYFQKRIAEVQSLADRTRNIGEYDAYLELLREKRRLFKKLTRRLTHLYRNLASHLIETLYELGVSTIYLGYPFNIVQEKGNKFTVNMWSYRKLMESIELKAQEYGMKVFEVVEYNTSKYCAYHDVEVKRNPRGVINCPLGHKLHSDLNGALNILKKALGVIVNAVKKPLSFIVDHNRVAPIKGCNPLEHHHHHH”: the “soluble on expression in E. coli” value is given as “not soluble”.

Take “MPSSRGVSLSISLAEAEVAPGGMLRGEVKVKVDSSHKNGIVYEAIRLVFLAVEKSCVWDDQGEFDELLNKYTSSRVYLDRHVTLTGFKTQSEDAETTAQVREEMLFLQHCATPYAAVAPTKPKKDAYRHYTREELLHGAIQMAATTKYTTGGVVAPDTNDSTNICMGSQKPVQAGDGPRSAAAAPRGGATEVEFPVLMPGTHRFPFLFRLPPWLPPSFYYSFVGAKGQLQYSASATMLFPGNGAGSWWFKICKDTSGAMRDMGKTFNRAAGSGAPSGKRARKRPGRDESGEGVIDLDDDEVGERMNRRLTSMPVYGPSDLTTAIHFDVLSVMPRRQLVAEYYQIDTHNLHQRPTNAPREAENAVSSSSNRNGAKKLQRRVDKSNDVGDVKPSGVSTGLLEHHEDTHLALSALYQTFRCGWLGNMCCLQPQNAIEAEVLVVGARTVLLADDVGALQALGVRPPITSDAPQLGGPALHAPDIVPSPDMAVAAPNTPWPVGGITLRVRVRNYCPTHTVECVRVELKVMLEIFKSLKTPHTFPGISYSSFDYTIPIPPGNQALFDVRLGLAPRFRRHETDSESLLPPPGVRTANMTSNTFLQVSFPGMYTYVEEEEEAKGVVIMAETVNLNDEVLELPVRYS”: the “soluble on expression in E. coli” value is on record as “not soluble”.

As for “MPTKGRVFVLGHSQDKDCVSRETGRRTTSITVPRDKCGVETVQHGKGAGYTSSVNIVISFHDKFLTKVDRAYNITCLYAPTGDVVSYALTVQPSLLKDIQVLAEQPSCEYEVFDVRTRRPAEIVHVNAPLEHVWTCDGTNLDLFCMTVHDCVINEGKSKRRSKIIDSEGCSLDTTRLPNLRYENNKLSARVMSKAFRFGDDVAVEFECNVRLDLRNGTSCPRPRC”, the “soluble on expression in E. coli” value is reported as “not soluble”.

Take “MPTLGFRFRAYTDEQTLRALKAQLKLACKIYNTLRWADIYFYQRDGKGLTQTELRQLALDLRKQDDEYKQLYSQVVQQIADRYYEAKKRFFEGLARFPKEKKPHKYYSLVYTQSGWKILHVREIRKGSKKNKKKLITLKLSNLGTFKVIVHRDFPLDKVKRVVVKLTRSERIYITFVVEGYEFPKLPNTGKVVAIDVGVEKLLVTPDGEYFPNLRPLEKALWKVKHLHRELSRKKFLSNNWFKAKVKLARAYEHLKNLRSDLYMKLGKWFAEHYDVVVMEGIHAKQLVGKSLRSLRRRLSDVGFGELRDVLKYQLEKYGKKLILVNPAYTSKTCARCGYVKNDLSLSDRVFVCPNCGWIADRDYNASLNILKGAGSERSLVPVELRPLPVPALRYWHGRAVKQEAPSFMRGLEHHHHHH”: the “soluble on expression in E. coli” value was “soluble”.

With “MPTPEKRLRLMQLASNSLPVGGYSWSQGLEWAVEAGWVEDSAAFEHWQQLQMEQSFFAVDLPLLARLYRACEAGDPDSAGRWTAYLLACRETRELRDEERNRGAAFTRLLVDWQPDCPAEWRKLCQQSQLTGMAWLGVRWQISVSDLALSLGYSWIESAVMAGVRLVPYGQLAAQQLIMRLCARYAANMDSALATPDHAIGSATPLASIASARHETQYSRLFRS”, the “soluble on expression in E. coli” value is listed as “not soluble”.

“MPTSELTKERDLRDSKPIWADTPRTGIRSTHTPAANHYDTIVVGAGISGALVSHALHRPGQTMLIIDRREPVMGSSVASTAMIQHEIDTPLTELRKMIGKDAADRAWQRSARAVLRLEEIVSSLGISCSMKRKQALYLAGDEMGSRALKAEAAAREEAGIEARFLSTGELREQYGLDRTAAILSDISASANPAQLTAGLLRHTAAAGAEIVSKLEITDLRNLGDEVVLATADGKILSARSVVFCTGYEFLKMLESPKHQIISTWALASKKGLDLPDWLESHIVWEASDPYLYLRTDRDGRVIAGGEDEENPTAYQSERKLTAKAEAIRRKVEKLIGIDMGAPDYRWAAAFGTTTTGLPLIGAVPGMKNVYAVMGFGGNGITFSQIAAEIVAAAVNGGKDPDADLFRFGLEHHHHHH”: the “soluble on expression in E. coli” value is reported as “soluble”.

As for “MPVEHLDVLIVGAGLSGVGAAYHLMKHCPGKSFALLEGRAAMGGTWDLFRYPGIRSDSDMFTLGYNFKPWSDPKAIADGPSIRRYIEETARENGIDRKIRYRHRVLRADWDSANARWNLDVQRGDEPEPLRMTAQFLLMCTGYYRYEAGYTPEFVGREDFAGQVVHPQLWPEDLDYSGKKVVVIGSGATAVTLVPSLTDKAAHVTMLQRSPSYVITLPQKDAISNFLRRFLPETWIYRQARARNVAMQMVFFMLARTFPGLVRKALLKLASLQLGKRFDIRHFSPRYKPWDERVCAVPDGDLFKVLRKGKASVVTEHIDRFVERGIRLKTGEVLEADIIVTATGLDLVMFGGAELAVDGKPFLVNQSMGYRGIMLRDLPNLAAVVGYTNASWTLKADLSSEYFCRLINHMDATGMRQVTARDSTGDVREEPFLNLDSGYIQRAAERMPKQGDRMPWKLYQNYVLDLALLRYGKVEDGYLVFSSPAPQRQAGGAAVQALGLEHHHHHH”, the “soluble on expression in E. coli” value is reported as “not soluble”.

Turning to “MPVNSILGVFAKSPIKPLQEHMDKVYDCASLLVPFFEATITGNWDDAVQIRKQISLAEKQGDSLKREIRLTLPSGLFMPVERTDLLELLTQQDKIANKAKDISGRVIGRQLLIPQALQVPFIAYLQRCIDAVGLAQQVINELDDLLEAGFRGREVDFVAKMINELDIIEEDTDDLQIQLRRQLFALESELNPVDVMFLYKTIEWVGGLADLAERVGSRLELMLARVLEHHHHHH”, the “soluble on expression in E. coli” value is on record as “soluble”.

With “MPVVSNTELSMRRQEILEGARRCFAEHGYEGATVRRLEETVGKSRGAIFHHFSDKENLFLALAREDAARMAEVVAENGLVEVMRDMLAHPERHDWLATRLEITKMLRTDPSFRNRWIEHQRVLDDAVLERLQRNAHLGRMRDDVPIDVLHTYLETVLDGFISRLASGGDTDNLERVLDLVEESVRSSQPS”, the “soluble on expression in E. coli” value is given as “not soluble”.

Regarding “MPWRNKEASSPSSANPPLEALQSPSFRGNMADKLKDPSTLGFLEAAVKISHTSPDIPAEVQMSVKEHIMRHTRLQRQTTEPASSTRHTSFKRHLPRQMHVSSVDYGNELPPAAEQPTSIGRIKPELYKQKSVDGEDAKSEATKSCGKINFSLRYDYETETLIVRILKAFDLPAKDFCGSSDPYVKIYLLPDRKCKLQTRVHRKTLNPTFDENFHFPVPYEELADRKLHLSVFDFDRFSRHDMIGEVILDNLFEASDLSRETSIWKDIQYATSESVDLGEIMFSLCYLPTAGRLTLTVIKCRNLKAMDITGYSDPYVKVSLLCDGRRLKKKKTTIKKNTLNPVYNEAIIFDIPPENMDQVSLLISVMDYDRVGHNEIIGVCRVGITAEGLGRDHWNEMLAYPRKPIAHWHSLVEVKKSFKEGNPRL”, the “soluble on expression in E. coli” value is “not soluble”.

As to “MPYADNGVKIYYEVEDGGEPAIVFVHGWTANMNFWREQREYFKGKHRMLFIDNRGHGKSDKPFNRSFYEFDNFVSDLHAAVKDASFDRFVLVGHSFGTMISMRYCVEHPGRVEALVLIGGGARIQSLHRYGYPIGRLFATLAYGISARIIANMAFGRKAGELRDWGLKEALENTPKHAALNTLWTLTTVDLRDIAREIEKPTLIVVGKEDALLPVSKSEELSRLIKNSKMVIVPDAGHCVMLEQPEIVNRVLEEFIHTFSAMLIRA”, the “soluble on expression in E. coli” value is “not soluble”.

For “MPYVTVKMLEGRTEEQKKALAEKVTAAVSETTGAPEENIVVFIEEMSKNHYAVGGKRLSDK”, the “soluble on expression in E. coli” value is “not soluble”.

With “MQDIPQETLSETTKAEQSAKVDLWEFDLTAIGGERFFFCNEPNEKGEPLTWQGRQYEPYPIQVQDFEMNGKGASPRPNLVVANLFGLVTGMAEDLQSLVGASVVRHQVYSKFLDAVNFSNGNPDADPEQEAVARYNVEQLSELDSSTATIILASPAETDGSVVPGRTMLADSCPWDYRDENCGYDGPPVADEFDKPTSDPKKDKCSHCMKGCEMRNNLVNAGFFASINKLS”, the “soluble on expression in E. coli” value is on record as “not soluble”.

For “MQFFTSDTHFFHKDLLGDSDFAPRPFASVDEMNQTIIDNWNARVAETDTVYHLGDIALYFTKPAIKSDEAVFNVLSQLNGHLELIKGNHDSRALFKYLAAHNFSDHGQPKFAFHDVGALIKYDHRQYYLTHYPMMLGIVNQIINLHGHIHHYAVPVKENINVGVDTPEQRYLTTSVPFGTPFSPTEIEQMVTGKAQEFREKQLEHHHHHH”, the “soluble on expression in E. coli” value was “not soluble”.

As for “MQFQIGAQGDIADMLTMCNNFPGFEAPMRYMIENSHDVVTVFDGSPAVIVLDELVKADESSYLPFKMKKSYKKVDEIAAKMASEEIHFTIHLSSHSQKNVIQIFQSAYSDGYTEEDKKGKIPEGGRVKCAGTETGARSNVKCEEVAKEVNEYIDSNKDKFGDLKVESLGKADSFMKQKPRRNLFIRVPPLE”, the “soluble on expression in E. coli” value was “not soluble”.

With “MQGFELEDLTLWLIRDAGEDQMWIDRWAISYPVVQMSEASAGQSIGEWQAGLQTAFERIRGKYVAVVAHGAGAAAFLAWLYQADILTRKKIANIILVPQRPDIFPDDAEHAFQRVRCPCRAALVVPEHGGVPHGWAQKQADLWNARLLVSPHSGSLNGMLGGWQWGMKLMQEMLLA”, the “soluble on expression in E. coli” value was “not soluble”.

For “MQGLESLTYYTENYPPLNFAKEDGKPAGIAVDLLLEAAAAVNVTLNLDQIFVQPWPRSYRSALLKQDGVLFSTTRTTHRENLFNWVGPIADIKVVVLARKSSQIKVNDPIELGNYRIGVIRDDIGEQQLLQLEHHHHHH”, the “soluble on expression in E. coli” value is on record as “not soluble”.

On to “MQGLTMDDISLSIARNMFHLQVYESDGVRFEDLFSKIMYYKSPDFQQVKPYGNIGDRKNDGFIKGQGVYYQVYAPEDASNNVLAAVNKIKDDFEGLRDYWHDICPIKKYYFVLNDKYKGSLPQLHKELIVLQSDFNLIDTGVIVAKDLERELFNLPDDMIRSVVGHLPDIDHEEYMFVSGFTCFISAWINFEKIARHKVFSAKQPNRPLFIGKVVNALVKNKIISRQDATFIKKITEVRNSLVHGVSMLVPKKNEIDMLIFITEKIKPAGVCRLD”, for which the “soluble on expression in E. coli” value was “not soluble”.

With “MQIFPYSDDPNKRYHTWNYALRQQFGEKIFKVPIDGGFDCPNRDGTVAKGGCTFCSVSGSGDMIVAPSDPLPLQFQKEIQLMHQKWPTVDQYIVYFQNFTNTHAPVDVIRHRFEQVVNEKGVVGLSIGTRPDCLPDEVVNYLAELNERFYLWVELGLQTTFEETSAAINRAHDYQTYLDGVAKLRKHGIRVCTHLINGLPGETPAMMRENVRRTIQDSDIQGIKLHLLHLMTNTKMMRDYNEGRLQLMSKEAYVSVICDQLEMIPPEIVIHRLTGDAPFETIIGPMWSLKKWEVLNAIDAEMKRRNSYQGKYTVISGKEVFN”, the “soluble on expression in E. coli” value is listed as “not soluble”.
